Assays:
[1] = target: c-Src SH2; assay: SH2 binding enrichment of the phosphorylated peptide, bacterial display (enrichment ratio); higher = better substrate or ligand; peptides without Tyr show the background
[2] = target: Grb2 SH2 (UniProt P62993); assay: as above
[3] = target: SHP2-C SH2; assay: as above
[4] = target: FGFR3 (UniProt P22607); assay: phosphorylation enrichment, bacterial display (enrichment ratio); higher = better substrate or ligand; peptides without Tyr show the background
[5] = test system: Fer (mouse); assay: as above
[6] = target: Jak2 (UniProt O60674); assay: as above
Sequence of Jak2 (O60674 whole entry, looked up): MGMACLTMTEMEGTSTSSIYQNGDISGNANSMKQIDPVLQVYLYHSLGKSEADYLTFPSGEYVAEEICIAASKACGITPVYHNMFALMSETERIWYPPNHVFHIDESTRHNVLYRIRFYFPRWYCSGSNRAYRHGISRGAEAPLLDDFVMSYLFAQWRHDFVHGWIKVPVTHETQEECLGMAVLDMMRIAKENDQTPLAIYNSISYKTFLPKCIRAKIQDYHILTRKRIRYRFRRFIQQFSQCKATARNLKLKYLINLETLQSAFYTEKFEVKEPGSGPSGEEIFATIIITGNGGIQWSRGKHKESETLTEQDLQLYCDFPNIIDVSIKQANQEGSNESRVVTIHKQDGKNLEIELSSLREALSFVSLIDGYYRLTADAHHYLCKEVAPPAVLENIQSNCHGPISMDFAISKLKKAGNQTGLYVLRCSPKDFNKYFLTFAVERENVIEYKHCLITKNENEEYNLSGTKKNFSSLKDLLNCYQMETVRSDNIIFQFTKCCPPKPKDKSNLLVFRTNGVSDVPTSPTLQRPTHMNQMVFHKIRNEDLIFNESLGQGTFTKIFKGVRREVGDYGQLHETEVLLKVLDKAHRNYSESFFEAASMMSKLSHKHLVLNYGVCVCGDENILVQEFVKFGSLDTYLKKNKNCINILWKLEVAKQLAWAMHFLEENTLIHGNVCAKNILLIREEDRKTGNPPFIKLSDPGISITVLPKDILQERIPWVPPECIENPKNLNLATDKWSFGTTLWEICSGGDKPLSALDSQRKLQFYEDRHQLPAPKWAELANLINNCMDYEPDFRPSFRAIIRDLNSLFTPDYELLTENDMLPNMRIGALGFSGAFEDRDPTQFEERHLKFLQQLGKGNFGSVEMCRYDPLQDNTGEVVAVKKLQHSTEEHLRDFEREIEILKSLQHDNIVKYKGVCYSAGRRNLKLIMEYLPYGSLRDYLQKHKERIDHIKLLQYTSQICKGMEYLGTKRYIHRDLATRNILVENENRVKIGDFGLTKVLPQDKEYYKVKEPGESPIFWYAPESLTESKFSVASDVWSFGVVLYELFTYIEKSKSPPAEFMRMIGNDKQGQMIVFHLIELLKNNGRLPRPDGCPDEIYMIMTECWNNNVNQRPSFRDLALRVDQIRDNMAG

[7] = target: EPHB1 (UniProt P54762); assay: as above
Sequence of EPHB1 (P54762 whole entry, looked up): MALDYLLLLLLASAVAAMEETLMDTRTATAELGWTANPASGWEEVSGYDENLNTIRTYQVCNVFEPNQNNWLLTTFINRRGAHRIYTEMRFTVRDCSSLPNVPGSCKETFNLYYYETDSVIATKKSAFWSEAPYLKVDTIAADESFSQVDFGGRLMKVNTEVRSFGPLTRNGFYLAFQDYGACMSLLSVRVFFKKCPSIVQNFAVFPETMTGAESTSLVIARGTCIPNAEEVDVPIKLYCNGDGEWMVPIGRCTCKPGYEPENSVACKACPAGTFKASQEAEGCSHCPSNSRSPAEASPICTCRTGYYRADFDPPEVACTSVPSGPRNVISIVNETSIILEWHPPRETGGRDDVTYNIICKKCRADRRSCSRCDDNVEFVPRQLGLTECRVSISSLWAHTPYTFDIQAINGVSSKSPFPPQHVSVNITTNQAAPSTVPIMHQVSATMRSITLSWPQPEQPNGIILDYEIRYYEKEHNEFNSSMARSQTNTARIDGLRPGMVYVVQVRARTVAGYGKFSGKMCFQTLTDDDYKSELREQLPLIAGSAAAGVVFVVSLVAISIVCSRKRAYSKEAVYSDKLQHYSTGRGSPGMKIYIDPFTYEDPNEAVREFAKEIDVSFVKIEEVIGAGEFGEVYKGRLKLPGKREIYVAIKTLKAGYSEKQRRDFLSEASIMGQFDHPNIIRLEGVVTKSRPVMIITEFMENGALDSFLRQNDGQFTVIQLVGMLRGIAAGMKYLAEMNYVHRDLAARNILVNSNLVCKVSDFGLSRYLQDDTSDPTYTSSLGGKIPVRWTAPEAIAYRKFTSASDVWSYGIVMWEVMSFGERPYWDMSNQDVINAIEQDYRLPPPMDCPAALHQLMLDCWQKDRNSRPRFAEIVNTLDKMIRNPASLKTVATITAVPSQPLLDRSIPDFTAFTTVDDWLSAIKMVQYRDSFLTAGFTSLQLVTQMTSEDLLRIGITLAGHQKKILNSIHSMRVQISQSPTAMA

[8] = target: FGFR1 (UniProt P11362); assay: as above
Sequence of FGFR1 (P11362 whole entry, looked up): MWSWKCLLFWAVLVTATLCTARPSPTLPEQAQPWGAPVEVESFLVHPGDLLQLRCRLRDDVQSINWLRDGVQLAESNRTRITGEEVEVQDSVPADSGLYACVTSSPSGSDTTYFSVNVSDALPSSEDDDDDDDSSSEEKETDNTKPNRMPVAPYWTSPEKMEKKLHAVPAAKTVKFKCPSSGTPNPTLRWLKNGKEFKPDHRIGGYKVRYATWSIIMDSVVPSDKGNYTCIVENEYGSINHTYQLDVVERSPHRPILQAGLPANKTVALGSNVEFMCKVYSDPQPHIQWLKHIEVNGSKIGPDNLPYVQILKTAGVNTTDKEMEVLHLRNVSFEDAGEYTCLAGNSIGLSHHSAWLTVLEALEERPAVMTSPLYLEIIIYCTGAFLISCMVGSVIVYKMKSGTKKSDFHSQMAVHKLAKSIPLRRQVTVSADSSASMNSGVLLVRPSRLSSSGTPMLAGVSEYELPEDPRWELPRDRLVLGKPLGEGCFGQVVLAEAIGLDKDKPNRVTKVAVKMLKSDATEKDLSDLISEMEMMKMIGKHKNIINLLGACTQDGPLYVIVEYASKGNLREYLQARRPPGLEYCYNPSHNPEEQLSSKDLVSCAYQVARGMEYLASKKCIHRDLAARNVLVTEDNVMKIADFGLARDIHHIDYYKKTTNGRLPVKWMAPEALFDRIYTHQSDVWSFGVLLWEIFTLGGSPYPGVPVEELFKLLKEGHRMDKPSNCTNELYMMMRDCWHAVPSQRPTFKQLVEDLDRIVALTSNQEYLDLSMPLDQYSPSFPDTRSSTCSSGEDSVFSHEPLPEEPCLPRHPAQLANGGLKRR

[9] = target: Fes (UniProt P07332); assay: as above
[10] = test system: AncSZ; assay: as above
[11] = target: EPHB2 (UniProt P29323); assay: as above
[12] = target: Hck (UniProt P08631); assay: as above
Sequence of Hck (P08631 whole entry, looked up): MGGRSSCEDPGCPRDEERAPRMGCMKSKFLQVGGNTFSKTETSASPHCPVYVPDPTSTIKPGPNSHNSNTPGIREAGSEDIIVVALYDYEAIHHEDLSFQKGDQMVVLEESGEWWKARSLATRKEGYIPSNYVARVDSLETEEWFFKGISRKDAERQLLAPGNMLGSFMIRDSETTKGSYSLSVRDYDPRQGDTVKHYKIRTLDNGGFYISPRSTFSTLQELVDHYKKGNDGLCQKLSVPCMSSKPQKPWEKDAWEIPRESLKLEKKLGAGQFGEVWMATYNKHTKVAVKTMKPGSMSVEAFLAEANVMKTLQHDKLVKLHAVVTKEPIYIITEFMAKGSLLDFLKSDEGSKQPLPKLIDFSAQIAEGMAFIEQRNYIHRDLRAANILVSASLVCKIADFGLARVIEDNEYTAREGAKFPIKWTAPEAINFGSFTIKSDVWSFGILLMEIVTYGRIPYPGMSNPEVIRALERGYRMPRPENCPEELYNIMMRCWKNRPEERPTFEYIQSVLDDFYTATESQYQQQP

[13] = target: Fyn (UniProt P06241); assay: as above
Sequence of Fyn (P06241 whole entry, looked up): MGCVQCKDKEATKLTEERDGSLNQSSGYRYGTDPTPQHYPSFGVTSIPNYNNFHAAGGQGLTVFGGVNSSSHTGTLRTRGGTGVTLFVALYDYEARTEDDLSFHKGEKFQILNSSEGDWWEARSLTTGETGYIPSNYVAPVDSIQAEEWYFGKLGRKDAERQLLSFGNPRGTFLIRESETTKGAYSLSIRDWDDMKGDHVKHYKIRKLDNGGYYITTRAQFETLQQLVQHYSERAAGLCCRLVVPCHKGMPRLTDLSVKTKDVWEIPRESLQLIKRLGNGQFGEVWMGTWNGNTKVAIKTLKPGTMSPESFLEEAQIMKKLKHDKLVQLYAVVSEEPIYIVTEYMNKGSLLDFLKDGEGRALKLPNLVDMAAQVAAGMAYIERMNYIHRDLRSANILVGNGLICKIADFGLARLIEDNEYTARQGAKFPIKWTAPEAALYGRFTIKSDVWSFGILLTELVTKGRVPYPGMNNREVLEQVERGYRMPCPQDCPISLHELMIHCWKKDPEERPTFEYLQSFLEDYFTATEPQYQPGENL

[14] = test system: c-Src; assay: as above
[15] = target: MERTK (UniProt Q12866); assay: as above
Sequence of MERTK (Q12866 whole entry, looked up): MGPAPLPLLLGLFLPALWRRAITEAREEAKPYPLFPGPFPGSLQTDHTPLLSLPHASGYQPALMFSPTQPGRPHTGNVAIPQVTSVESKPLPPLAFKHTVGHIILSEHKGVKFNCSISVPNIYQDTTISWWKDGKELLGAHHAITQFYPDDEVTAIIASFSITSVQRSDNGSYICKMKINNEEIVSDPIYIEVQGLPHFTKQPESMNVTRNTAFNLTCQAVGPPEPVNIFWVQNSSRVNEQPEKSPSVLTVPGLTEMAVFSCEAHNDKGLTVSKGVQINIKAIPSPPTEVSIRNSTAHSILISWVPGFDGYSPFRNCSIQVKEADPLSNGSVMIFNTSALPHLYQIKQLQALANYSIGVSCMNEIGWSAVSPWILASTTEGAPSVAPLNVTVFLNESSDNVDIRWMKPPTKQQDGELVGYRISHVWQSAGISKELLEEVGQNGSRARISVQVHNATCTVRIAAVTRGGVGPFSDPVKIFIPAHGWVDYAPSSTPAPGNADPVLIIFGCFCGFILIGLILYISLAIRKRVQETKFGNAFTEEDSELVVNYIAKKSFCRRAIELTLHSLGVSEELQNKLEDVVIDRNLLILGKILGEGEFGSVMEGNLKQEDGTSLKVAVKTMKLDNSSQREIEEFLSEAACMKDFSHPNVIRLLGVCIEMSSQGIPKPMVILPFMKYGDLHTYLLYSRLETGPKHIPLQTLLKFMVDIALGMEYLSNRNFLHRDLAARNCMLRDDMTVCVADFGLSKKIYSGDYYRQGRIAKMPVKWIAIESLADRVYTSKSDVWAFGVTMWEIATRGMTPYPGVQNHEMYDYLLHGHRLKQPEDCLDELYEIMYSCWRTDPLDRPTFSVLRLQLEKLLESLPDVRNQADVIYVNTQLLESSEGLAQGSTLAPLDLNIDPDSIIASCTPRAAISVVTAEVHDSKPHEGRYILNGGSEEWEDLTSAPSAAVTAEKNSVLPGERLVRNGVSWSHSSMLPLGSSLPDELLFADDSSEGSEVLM

[16] = test system: c-Abl (mouse); assay: as above
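For SH2 binding enrichment of the phosphorylated peptide, bacterial display in this document: peptide library displayed on the E. coli surface as eCPX fusions, selected cells deep-sequenced, score is each peptide's frequency after selection divided by its frequency in the input.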
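For phosphorylation enrichment, bacterial display in this document: 11-residue human phosphosite peptides and single-mutation variants displayed on the E. coli surface, counted by deep sequencing, each peptide's frequency after selection divided by its frequency in the unselected input library; frequency after pTyr selection over input frequency; kinase dosed for 20-30% of maximal phosphorylation in three min.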

Sequence	SH2 binding enrichment [1]	SH2 binding enrichment [2]	SH2 binding enrichment [3]	phosphorylation enrichment [4]	phosphorylation enrichment [5]	phosphorylation enrichment [6]	phosphorylation enrichment [7]	phosphorylation enrichment [8]	phosphorylation enrichment [9]	phosphorylation enrichment [10]	phosphorylation enrichment [11]	phosphorylation enrichment [12]	phosphorylation enrichment [13]	phosphorylation enrichment [14]	phosphorylation enrichment [15]	phosphorylation enrichment [16]
SLKEFYGEDAK [ALDH3A1_Y272]	0.511	0.916	0.599	0.692	0.588	0.903	0.434	0.472	1.08	0.929	0.472	0.501	0.51	0.44	0.388	0.561
SLNEGYAKDFD [FBP1_Y216_R218K]	0.598	0.788	0.84	0.716	0.511	0.71	0.508	0.566	0.937	1.02	0.6	0.525	0.534	0.371	0.437	0.589
SLQFEYVHYGG [CDC14A_Y591_S589F]	0.609	0.686	0.523	0.742	0.481	0.766	0.556	0.797	0.904	1.06	0.628	0.551	0.516	0.465	0.348	0.405
SMAKFYASEIA [ACADSB_Y373_YF]	0.393	0.788	0.674	0.604	0.61	0.619	0.403	0.513	0.803	0.686	0.472	0.518	0.434	0.464	0.437	0.588
SRGRQYQELPR [KCNH2_Y1009]	1.29	0.925	0.565	0.423	0.349	0.455	0.316	0.4	0.462	0.512	0.347	0.527	0.317	0.441	0.36	0.463
SRIWVYNHFRC [BRCA2_Y2621_W2626C_YF]	0.558	0.869	0.589	0.937	0.653	1.19	0.638	0.575	1.43	1.16	0.672	0.543	0.547	0.483	0.466	0.976
SSFSGYIMMPN [LEF1_Y114_YF]	2.08	0.999	1.03	1.39	0.401	3.33	0.433	1.53	0.934	1.02	1.47	0.421	0.534	0.4	0.562	0.603
SSSPTYLDLPF [GLI3_Y168_P169L]	0.464	0.786	0.57	3.79	0.621	0.592	8.94	5.82	0.667	0.659	2.73	2.25	0.638	0.647	1.12	0.681
SVKVYYKKCWS [EPHA7_Y202]	0.393	0.716	0.521	0.733	0.483	1.21	0.549	0.414	1.25	0.951	0.432	0.424	0.352	0.432	0.379	1.2
SVSVNYGDLVQ [GRAP_Y101_Q104L]	0.479	0.824	0.695	0.633	0.54	0.728	0.516	0.565	0.855	0.745	0.557	0.476	0.506	0.419	0.42	0.61
TAALWYIYLHT [ENG_Y612_S615L]	0.514	0.989	0.52	1.1	0.769	1.55	0.796	0.81	1.66	1.41	0.639	0.579	0.587	0.566	0.516	1.18
TDLAYYLVRKG [ASL_Y376]	0.795	0.95	1.41	2.42	0.48	2.05	0.468	3.17	0.962	0.963	0.629	0.716	0.539	0.783	0.684	0.672
TEDELYQLFLQ [RASGRP2_Y378_S381F]	0.476	0.633	0.963	1.9	8.85	1.3	1.05	1.37	1.56	3.06	0.825	3.67	4.54	4.23	2.01	1.13
TEQDPSNNIVR [MMUT_Y364_Y364S]	0.5	0.969	0.863	0.557	0.408	0.771	0.468	0.55	1	0.824	0.46	0.408	0.492	0.492	0.464	0.768
TFFQMYDKGLV [IARS2_Y231_YF]	0.526	0.99	0.7	0.623	0.57	1.03	0.531	0.52	1.14	0.862	0.569	1.06	0.566	0.537	0.542	0.734
TFINKYQGKLF [HGD_Y249_V245F]	0.629	0.726	0.78	0.457	0.358	0.457	0.391	0.387	0.589	0.566	0.346	0.368	0.414	0.347	0.631	0.52
TFMKKYPKVFL [CNBD1_Y70_Q69K]	1.17	1.12	1.52	0.419	0.393	0.642	0.508	0.485	0.662	3.41	0.419	0.366	0.357	0.447	0.404	0.548
TFRPPYYHRDC [HGD_Y333_N337D]	1.05	1.04	1.2	1.12	0.756	0.82	0.834	0.874	1.28	1.17	0.734	0.822	0.658	0.583	0.499	0.639
TGNGFYFRVFS [MYBPC3_Y1136_I1131T_YF]	0.363	0.705	0.62	0.763	0.543	1.32	0.65	0.433	1.33	1.1	0.517	0.456	0.393	0.374	0.36	0.929

More lines, main results first:

SH2 binding enrichment [1]	SH2 binding enrichment [2]	SH2 binding enrichment [3]	Sequence	phosphorylation enrichment [4]	phosphorylation enrichment [5]	phosphorylation enrichment [6]	phosphorylation enrichment [7]	phosphorylation enrichment [8]	phosphorylation enrichment [9]	phosphorylation enrichment [10]	phosphorylation enrichment [11]	phosphorylation enrichment [12]	phosphorylation enrichment [13]	phosphorylation enrichment [14]	phosphorylation enrichment [15]	phosphorylation enrichment [16]
0.384	0.75	0.672	SNYRAYATEPQ [TNNI3_Y29_H34Q]	0.475	0.444	0.597	0.461	0.389	0.72	0.699	0.467	0.497	0.419	0.44	0.428	0.464
0.891	0.798	0.63	STKELYEKYMI	0.591	5.61	0.69	0.504	0.484	0.825	0.805	0.594	0.72	0.602	0.821	0.412	0.518
0.462	0.881	0.627	SVMAEYGLFAA [VSX2_Y219_G223A_YF]	0.564	0.664	0.734	0.484	0.505	0.845	0.822	0.578	2.76	5.82	4.95	0.396	0.675
0.463	0.664	0.646	SVTCTYSPAFN [TP53_Y126_L130F]	0.897	0.553	1.31	0.8	0.49	1.51	1.35	0.59	0.592	0.518	0.66	0.418	1
0.367	0.644	0.605	SVTCTYSPAHN [TP53_Y126_L130H]	0.865	0.799	2.08	0.773	0.502	1.59	1.37	0.705	0.517	0.497	0.802	0.663	1.17
0.538	0.78	0.683	SVTCTYSPVLN [TP53_Y126_A129V]	0.831	1.02	1.21	0.795	0.558	1.6	1.37	0.692	0.876	0.613	0.815	0.435	0.804
0.46	0.62	0.596	SVTCTYSRALN [TP53_Y126_P128R]	0.796	0.5	1.07	0.626	0.461	1.28	1.09	0.602	0.523	0.429	0.494	0.401	0.916
0.844	0.854	0.867	SVVVPYEPPEI [TP53_Y220_V225I]	0.665	0.4	0.967	0.552	0.44	1.25	1.15	0.62	0.616	0.408	0.447	0.37	0.8
0.64	0.806	0.512	SVVVPYEPPKV [TP53_Y220_E224K]	0.612	0.45	0.822	0.474	0.41	0.837	0.827	0.59	0.465	0.387	0.465	0.366	0.895
0.962	0.783	1.04	TENAGYYFQVS	1.76	0.604	1.99	0.78	2	1.52	1.39	0.713	0.563	0.456	0.509	1.29	0.983
0.466	0.762	0.889	TGDFGYRTPGY [TNS2_Y668_A670T]	0.465	0.342	0.484	0.4	0.404	0.651	0.524	0.423	0.394	0.479	0.432	0.481	0.459
0.377	0.626	0.491	TGEDWYVLVRV [SF3B3_Y904_G908R]	0.827	0.524	1.21	0.893	0.405	1.42	1.37	0.64	0.561	0.433	0.385	0.364	0.954
0.456	0.889	0.728	TGEKLYQRKEF [ZNF283_Y627]	0.489	0.437	0.59	0.62	0.539	0.847	0.813	0.379	0.543	0.526	0.447	0.477	0.507
0.56	0.677	0.82	TGFRPYVCPFD [YY1_Y383_D380Y_YF]	1.66	0.892	1.12	2.1	1.1	0.975	1.54	0.978	0.691	0.4	0.458	0.849	1.29

— the supplement of paper PMC10065799, “High-throughput profiling of sequence recognition by tyrosine kinases and SH2 domains using bacterial peptide display” (eLife, 2023)
